According to patent publication US20170035898A1, “CONJUGATES OF AN IL-15 MOIETY AND A POLYMER” (Nektar Therapeutics, priority 2014, published 2017):

Legend:
IL-15-Rα-Fc [1] = assay: SPR (Biacore), IL-15Rα-Fc captured by anti-human Fc antibody, Kd from kd/ka
IL-15-Rα-Fc [2] = assay: SPR (Biacore), IL-15Rα-Fc captured by anti-human Fc antibody, test article injected
[3] = system: STAT5 phosphorylation in CTLL-2 cells; assay: Measurement of IL-15 activity of rIL-15 based on STAT5 phosphorylation in CTLL-2 cells (Example 1); type: cell-based
From the text: For any given peptide, protein moiety or conjugate, it is possible to determine whether that peptide, protein moiety or conjugate has IL-15 activity. Various methods for determining in vitro IL-15 activity are described in the art. An exemplary approach is based on a pSTAT assay. Briefly, if an IL-15-dependent CTLL-2 cell is exposed to a test article having IL-15 activity, initiation of a signaling cascade results that includes the phosphorylation of STAT5 at tyrosine residue 694 (Tyr694) that can be quantitatively measured.
One day prior to assay, CTLL-2 cells were split into fresh growth medium (RPMI 1640+10% FBS+10% T-STIM+2 mM L-glut+1 mM Na-pyruvate). On the day of assay, cells were pre-incubated in assay medium (RPMI 1640+1% FBS+2 mM L-glut+1 mM Na-pyruvate) for at least 4 hours and then placed in a 96-well plate at 50,000 cells/well in the assay medium.
Dilutions of the test article were prepared in an appropriate buffer immediately prior to assay and each dilution of test article was incubated in a separate well of the CTLL-2 cells. The phosphorylation of STAT5 was then determined using the MSD Phospho (Tyr694)/Total STATa,b Whole Cell Lysate Kit (catalog #K15163D, […], LLC, Gaithersburg, Md.).

[4] = system: STAT5 phosphorylation in CTLL-2 cells; assay: Measurement of IL-15 activity of rIL-15 conjugates based on STAT5 phosphorylation in CTLL-2 cells (Example 8); type: cell-based; conditions: 10 minute treatment
Experimental: One day prior to the assay, CTLL-2 cells were split into fresh growth medium [RPMI 1640 supplemented with 10% FBS, 10% T-cell culture supplement (catalog #354115, Corning, Inc., Tewksbury, Mass.), 2 mM L-glutamate, and 1 mM sodium pyruvate]. On the day of assay, cells were pre-incubated in assay medium (RPMI 1640 supplemented with 1% FBS, 2 mM L-glutamate, and 1 mM sodium pyruvate) for at least four hours, and then plated in assay medium in a 96-well plate at 50,000 cells/well. Dilutions of the test article were prepared in an appropriate buffer immediately prior to assay. Stimulation of CTLL-2 cells was initiated by the transfer of 25× test article solutions to triplicate wells containing CTLL-2 cells. Plates were incubated at 37° C., 5% CO2 for 10 minutes, and the reaction was stopped by cell lysis. Detection of phospho-STAT5 and total STAT5 protein levels in cell lysates was performed using the MSD Phospho (Tyr694)/Total STATa,b Whole Cell Lysate Kit (catalog #K15163D, Meso Scale Diagnostics, LLC, Gaithersburg, Md.). […] Conjugates prepared in accordance with Examples 2, 3 and 5 were tested, with the results following a 10 minute treatment provided in Table 4.

B16F10 melanoma tumor = assay: Antitumor activity of rIL-15 conjugates in B16F10 melanoma tumor (Example 9); type: in vivo, C57BL/6 mice; conditions: conjugates 0.6 mg/kg i.v. once, IL-15 0.3 mg/kg i.p. every other day x6
Experimental: To test and compare the efficacy of rIL-15 conjugates in an in vivo model, syngenic tumors were induced in 6-8 week old female C57BL/6 mice by subcutaneously injecting, into post ventral abdominal region, mouse metastatic B16F10 melanoma cells at a density of 1×10^6 cells mL-1 in 100 μL volume of non-serum containing cell culture medium. The mice developed tumors of approximately 100 mm^3 by the end of 6-8 days. The mice were divided into six groups, each group consisting of 10 animals.
Groups A through D correspond to rIL-15 conjugates that were administered at 0.6 mg/kg body weight by intravenous injection to the mice only once while Group E represents unconjugated IL-15 administered every other day via intraperitoneal injection. Group F represents a vehicle control, wherein phosphate buffered saline was administered by intravenous injection.
Following dose administration, the mice were measured for changes in body weight and for the growth of subcutaneous metastatic melanoma tumors by digital calipers three times a week. Daily clinical signs were also monitored. The study end point was reached when the mean volume of the tumors reach 1500 mm^3 (i.e., a mean tumor volume of 1500 mm^3).

IL-15Rα = assay: Receptor affinities for IL-15Rα by Surface Plasmon Resonance (Example 10); type: binding; conditions: SPR
Experimental: The affinities of IL-15 and rIL-15 conjugates were measured using Surface Plasmon Resonance (“SPR”). Briefly, the surface of a Biacore CMS sensor chip was activated using a 1:1 mixture of NHS:EDC to generate active NHS esters. Goat anti-human Fc antibody was covalently attached to the surface by injecting it for five minutes in 10 mM sodium acetate (pH 4). There were approximately 8000 RU of antibodies bound to the surface. Any remaining NHS ester was then quenched with ethanolamine
At the initiation of each injection cycle, IL-15-Rα-Fc was captured on a sensor chip channel by a five minute injection step in PBSP. Typically, 150-200 RU of receptors were bound on the surface.
rIL-15 conjugates were diluted to 10 μM in PBS (containing 0.05% Tween 20 and 0.1 mg/ml BSA). A series of 3-fold dilutions were made and injected onto a sensor chip which was coated with IL-15Rα. The affinities were measured by determining the ka and kd rates separately, and the ratio between kd and ka was used to calculate the Kd values.

[5] = days from the day of implantation
[6] = IL-15-Rα-Fc captured on sensor chip

| Substance | Kd (IL-15-Rα-Fc [1]) | koff (IL-15-Rα-Fc [2]) | kon (IL-15-Rα-Fc [2]) | further results |
| --- | --- | --- | --- | --- |
| Fraction containing di- and tri-PEG-rIL-15 from Example 2 ([mPEG2-ru-20K]-[rIL-15] conjugates) (from UniProt P40933 49-162) (ligand) | 183 pM | 0.00049 s⁻¹ | 2.6e+06 M⁻¹ s⁻¹ | – |
| Fraction containing tri-PEG-rIL-15 from Example 5 ([mPEG2-ru-40K]-[rIL-15] conjugates) (from UniProt P40933 49-162) (ligand) | 9400 pM | 0.0039 s⁻¹ | 420000 M⁻¹ s⁻¹ | – |
| Fraction containing mono-PEG-rIL-15 from Example 2 ([mPEG2-ru-20K]-[rIL-15] conjugates) (from UniProt P40933 49-162) (ligand) | 43 pM | – | – | – |
| recombinant IL-15 (unconjugated) (from UniProt P40933 49-162) (ligand) | 3.8 pM | – | – | – |
| IL-15: recombinant human IL-15 obtained from PeproTech (catalog #200-15); unconjugated control | – | – | – | average pSTAT5 EC50 ([3]; at 5 minutes, average over two runs): 0.2071 ng/mL; pSTAT5 EC50 ([3]; at 10 minutes): 0.08187 ng/mL; EC50 (ng/mL) Ave ± SD [4]: 0.063 ± 0.028 ng/mL; Tumor Volume Doubling Time (500 mm^3) (B16F10 melanoma tumor): 2.9 days; Tumor Volume Doubling Time (1000 mm^3) (B16F10 melanoma tumor): 5.6 days; Time to reach 250 mm^3 (B16F10 melanoma tumor; [5]): 10.6 days; Time to reach 500 mm^3 (B16F10 melanoma tumor; [5]): 13.5 days; Time to reach 1000 mm^3 (B16F10 melanoma tumor; [5]): 19.1 days; Tumor growth delay for 250 mm^3 (B16F10 melanoma tumor; versus vehicle control Group F): 0.6 days; Tumor growth delay for 500 mm^3 (B16F10 melanoma tumor; versus vehicle control Group F): 0.9 days; Tumor growth delay for 1000 mm^3 (B16F10 melanoma tumor; versus vehicle control Group F): 4 days; ka (IL-15Rα; [6]): 7.5e+06 M⁻¹ s⁻¹; kd (IL-15Rα; [6]): 0.00028 s⁻¹; Kd (IL-15Rα; read-out: affinity (Kd)): 3.8 pM |
| Fraction containing mono-PEG-rIL-15 from Example 5 ([mPEG2-ru-40K]-[rIL-15] conjugates) (from UniProt P40933 49-162) (ligand) | 3560 pM | 0.00047 s⁻¹ | 130000 M⁻¹ s⁻¹ | – |
| Fraction containing di- and tri-PEG-rIL-15 from Example 5 ([mPEG2-ru-40K]-[rIL-15] conjugates) (from UniProt P40933 49-162) (ligand) | 1900 pM | 0.00088 s⁻¹ | 460000 M⁻¹ s⁻¹ | – |
